Changes are numbered by the printed parent chain.
B1: Ab352 (antibody, V domains shown)
VH: EVQLVQSGPEVKKPGTSVKLSCKASGYTFTSYWMHWVRQARGQRLEWIGYIKPSSGYTKYNQKFKDRATLTADKSTSTAYMELSSLRSEDTAVYYCARDYYGSSSWFAYWGQGTLVTVSS
VL: EIVMTQSPAFLSVTPGEKVTITCKASQNVGTNVAWYQQKPDQAPKALIYSASYRYSGVPSRFSGSGSGTDFTLTISSLEAEDAATYYCQQYNSYPYMYTFGQGTKLEIK
notes: humanized
B2: Ab400 (antibody, V domains shown)
VH: B1 VH
VL: EIVMTQSQATMSTSVGERATLSCKASQNVGTNVAWYQQKPGQSPKALIYSASYRYSGVPARFSGSGSGTDFTLTISSVEPEDFAVYYCQQYNSYPYMYTFGQGTKLEIK
notes: humanized
B3: Ab355 (antibody, V domains shown)
VH: B1 VH with E1Q, P9A, K12A, T16A, R38K, R41P, R44G, R67K, S84R, E89D
VL: B1 VL
notes: humanized
B4: Ab402 (antibody, V domains shown)
VH: B1 VH with P9A, N61A, K65Q, D66E, A68V
VL: B2 VL
notes: humanized
B5: Ab403 (antibody, V domains shown)
VH: B1 VH with E1Q, P9A, K12A, T16A, R38K, R41P, R44G, R67K, S84R, E89D
VL: B2 VL
notes: humanized
B6: Ab326 (antibody, V domains shown)
VH: QVQLQQSGAELAKPGASVKLSCKASGYTFTSYWMHWVKQRPGQGLEWIGYIKPSSGYTKYNQKFKDKATLTADKSSSTAYMQLSSLTYEDSAVYYCARDYYGSSSWFAYWGQGTLVTVSA
VL: DIVMTQSQRFMSTSVGDRVSVTCKASQNVGTNVAWYQQKPGQSPKALIYSASYRYSGVPDRFTGSGSGTDFTLTISNVQSEDLAEYFCQQYNSYPYMYTFGGGTKLEIKR
notes: rodent hybridoma mAb
B7: Ab322 (antibody, V domains shown)
VH: B6 VH with S31N, K52N
VL: B6 VL with I75V
notes: rodent hybridoma mAb
B8: Ab328 (antibody, V domains shown)
VH: B6 VH with K52N, Y88F
VL: B6 VL with R9K, Q42H, Q90R, Y98F
notes: rodent hybridoma mAb
B9: Ab329 (antibody, V domains shown)
VH: QVQLKESGPGLVKPSATLSLTCTVSGFSLTSYHVCWIRQTPGKGLEWMGVIWGDGRTTYNPPLKSRLSISRDTSKSQVFLKMSSLKTEDTATYYCARATMTGHGDAWGQGASVTVSS
VL: DIQMTQSPASLSASLEEIVTITCQASQDIDNYLSWYQQKPGKSPHLLIHSATSLADGVPSRFSGGRSGTQFSLKINRLQVEDTGIYYCLQHYSGWTFGGGTKLELKR
notes: rodent hybridoma mAb
B10: Ab327 (antibody, V domains shown)
VH: DVKLVESGEGLVKPGGSLKLSCAASGFTFSSYAMSWVRQTPEKRLEWVTYISSGGDYIYYADTVKGRFTISRDNARNTLYLQMSSLKSEDTAMYYCTRERIWLRRFFDVWGTGTTVTVSS
VL: DIVMTQSQKFMSTSVGDRVSITCKASQNVGTAVAWYQLKPGQSPKLLIYSASNRFTGVPDRFTGSGSGTDFTLTISNMQSEDLADYFCQQYSSYPLTFGSGTKLEIKR
notes: rodent hybridoma mAb
B11: Ab330 (antibody, V domains shown)
VH: EVQVVETGGGVVQPGKSLEITCATSGLTFSTAWMYWVRQSSDRRLEWIARIKDKSNKFASDYVESVRGRFTISRDDSRSSVYLQMNNLKEEDTATYYCTTSYGYAWGQGVMVTVSS
VL: DIQMTQSPSSMSASLGDRVTITCQASQDIGNYLIWFQQKPGKSPRPLIYYATNLANGVPSRFSGSRSGSEYSLTITSLESEDMADYHCLQYKQHLTFGSGTKLEIER
notes: rodent hybridoma mAb
B12: Ab331 (antibody, V domains shown)
VH: B11 VH with K57N
VL: B11 VL with V19I
notes: rodent hybridoma mAb
B13: Ab325 (antibody, V domains shown)
VH: QVQLQQSGAELVKPGASVKISCKASGYAFSSYWMNWVKQRPGKGLEWIGQIYPGDGDTNYNGKFKGKATLTADKSSSTAYMQLSSLTSEDSAVYFCARWYYGSYYAMDYWGQGTSVTVSS
VL: DIQMTQTTSSLSASLGDRVTISCRASQDISNYLNWYQQKPDGTVKLLIYYTSRLHSGVPSRFSGSGSGTDYSLTISNLEQEDIATYFCQQGNTLPRTFGGGTKLEIKR
notes: rodent hybridoma mAb
B14: Ab320 (antibody, V domains shown)
VH: QVQLQQSGAELVKPGASVKISCKASGYAFSSYWMNWVKQRPGKGLEWIGQIYPGDGDTNYNGKFKGKATLTADKSSSTAYMQLSSLTSEDSAVYFCASYYYGSKAYWGQGTLVTVSA
VL: DIQMTQSPASLAASVGETVTITCRASENIYYSLAWYQQKQGKSPQLLIYNANSLEDGVPSRFSGSGSGTQYSMKINSMQPEDTATYFCKQAYDVPFTFGSGTKLEIKR
notes: rodent hybridoma mAb
B15: Ab323 (antibody, V domains shown)
VH: QVQLQQSGAELVKPGASVKISCKTSGYTFSNYWMNWVKQRPGKGLEWIGQIFPGDADANYNGKFKGKATLTADKSSSAAFMQLSSLTSEDSAVYFCARFSYDGAFAYWGQGTLVTVS
VL: DIVMTQSHKFMSTSVGDRVSITCKASQDVSTAVAWYQQKPGQSPKPLIYWASTRHTGVPDRFTGSGSGTDYTLTISSVQTEDLALYYCQQHYSTPRTFGGGTKLEIKR
notes: rodent hybridoma mAb
B16: Ab332 (antibody, V domains shown)
VH: EVQLQQSGPELVKPGTSVKISCKASGYTFTDYYMNWMKQSHGKSLEWIGDINPNNGVTSYNQKFKGKATLTVDKSSSTAYMELRSLTSEDSAVYYCAREDYGSNYFDYWGQGTTLTVSS
VL: DIVLTQSPASLAVSLGQRATISCKASQSVDYDGDSYMNWYQQKPGQPPKLLIYAASNLESGIPARLSGSGSGTDFTLNIHPVEEEDAATYYCQQSNEDPPTFGGGTKLEIRR
notes: rodent hybridoma mAb

Key:
[1] = molecular target: T1, purified ALK protein (BLitz, Table 20) (Homo sapiens (Human), UniProt Q9UM73 19-1038, limits assumed); experiment: BLI (BLitz), mAb on Protein A tip, purified ALK in solution
T1 construct: also called purified ALK proteins
In short: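 Humanized anti-ALK mAbs loaded at 0.5 mg/mL on Protein A tips; after stable baseline, purified ALK protein at 70 μg/mL added. Kinetic traces fit to a single binding site model to give monovalent KD.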

[2] = molecular target: human ALK, purified (hALK) (human, UniProt Q9UM73 19-1038, limits assumed); experiment: BLI (BLitz), estimated monovalent affinity, single dose kinetics
Experimental: (§1) Kinetic measurements of the monovalent affinity of the 96 humanized ALK antibody variants (Ab351-Ab446) were collected. Affinity ranking was performed using a BLitz® System (ForteBio, Menlo Park, Calif.). Humanized anti-ALK antibodies were immobilized at 0.5 mg/mL using Protein A tips. Once baseline stability was ensured, purified ALK proteins at 70 μg/mL were added. The resulting kinetic data were fit to a single binding site equation, from which the quoted monovalent KD values were derived.
(§2) KD values for both NB1 (human) cells and Neuro2a (mouse) cells were also determined.

[3] = molecular target: mouse ALK, purified (mALK) (mouse, UniProt P97793 19-1042); experiment: as above
Experimental: as §1, §2

[4] = molecular target: rat ALK, purified (rALK) (rat, UniProt P97793 19-1038 (mouse entry), limits assumed); experiment: as above
Experimental: as §1, §2

[5] = molecular target: T2, human ALK on the surface of NB1 cells (human, UniProt Q9UM73 21-1620); experiment: flow cytometry titration on NB1 cells, steady state
T2 construct: ALK of NB1 cells; also called cell surface hALK; NB1 (human)
Experimental: KD was determined by flow cytometry. Titration of each antibody on NB1 cells for 2-4 hours at 4° C. was followed by incubation with a fluorescently-labeled secondary antibody. The normalized mean fluorescent intensity […] shown as “% Max binding” was plotted as a function of antibody concentration.
Flow cytometry was utilized to measure the affinity at steady state (KD) with which different ALK antibodies bind to ALK on the surface of NB1 cells (FIG. 3). Titration of each antibody on NB1 cells for 2-4 hours at 4° C. was followed by incubation with a fluorescently-labeled secondary antibody. The normalized mean fluorescent intensity (MFI) shown as “% Max binding” was plotted as a function of antibody concentration. The data were fit to a one site binding isotherm using GraphPad Prism, from which affinity values were derived.

[6] = molecular target: T3, murine ALK (Table 18, 'mouse ALK binding') (mouse, UniProt P97793 19-1042, limits assumed); experiment: ELISA on purified mouse ALK or flow cytometry on Neuro-2a cells
T3 construct: either purified mouse ALK antigen coated in ELISA or endogenous ALK on Neuro-2a cells
Experimental: Purified mAbs were evaluated for their ability to bind murine ALK by solid-state ELISA, or flow cytometry on Neuro-2a cells that express low levels of endogenous murine ALK.
Luminescence data were plotted as a function of the log-transformed anti-ALK antibody concentration and fit to a 4-parameter non-linear regression equation.
Alternatively, Neuro-2a cells were incubated with 10-100 nM of anti-ALK antibodies, followed by a fluorescently-labeled secondary antibody. Mean fluorescence intensity (MFI) of live-gated cells treated with anti-ALK antibodies was divided by background, determined using the secondary antibody alone.

Chain of mouse ALK, purified (mALK) (P97793 19-1042 limits assumed): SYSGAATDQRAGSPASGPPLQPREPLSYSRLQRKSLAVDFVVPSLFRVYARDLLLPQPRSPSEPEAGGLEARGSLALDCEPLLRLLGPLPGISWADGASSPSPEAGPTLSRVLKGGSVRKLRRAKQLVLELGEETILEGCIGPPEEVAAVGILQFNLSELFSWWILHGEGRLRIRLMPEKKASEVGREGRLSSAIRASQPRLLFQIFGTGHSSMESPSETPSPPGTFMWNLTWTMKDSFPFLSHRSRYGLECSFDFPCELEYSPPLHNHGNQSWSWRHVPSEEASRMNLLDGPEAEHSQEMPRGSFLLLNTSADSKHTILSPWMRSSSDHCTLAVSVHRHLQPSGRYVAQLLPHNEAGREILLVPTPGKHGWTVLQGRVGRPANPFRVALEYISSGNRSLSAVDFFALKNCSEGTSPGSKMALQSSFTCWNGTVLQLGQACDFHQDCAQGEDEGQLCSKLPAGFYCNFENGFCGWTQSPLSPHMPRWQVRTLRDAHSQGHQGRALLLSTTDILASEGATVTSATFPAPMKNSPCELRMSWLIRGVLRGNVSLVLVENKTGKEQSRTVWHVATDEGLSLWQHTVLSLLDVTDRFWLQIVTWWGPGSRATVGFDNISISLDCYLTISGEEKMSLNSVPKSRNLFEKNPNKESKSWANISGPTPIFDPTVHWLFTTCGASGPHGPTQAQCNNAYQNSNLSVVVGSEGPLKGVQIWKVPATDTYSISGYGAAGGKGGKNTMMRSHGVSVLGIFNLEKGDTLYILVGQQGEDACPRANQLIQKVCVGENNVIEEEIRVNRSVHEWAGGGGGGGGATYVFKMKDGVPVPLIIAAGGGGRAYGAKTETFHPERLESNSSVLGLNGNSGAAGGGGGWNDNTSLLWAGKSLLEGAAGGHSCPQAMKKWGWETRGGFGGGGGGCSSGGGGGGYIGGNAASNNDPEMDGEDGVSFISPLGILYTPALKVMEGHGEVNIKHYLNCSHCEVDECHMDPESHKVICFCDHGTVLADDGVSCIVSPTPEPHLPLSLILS
T2 sequence (Q9UM73 21-1620): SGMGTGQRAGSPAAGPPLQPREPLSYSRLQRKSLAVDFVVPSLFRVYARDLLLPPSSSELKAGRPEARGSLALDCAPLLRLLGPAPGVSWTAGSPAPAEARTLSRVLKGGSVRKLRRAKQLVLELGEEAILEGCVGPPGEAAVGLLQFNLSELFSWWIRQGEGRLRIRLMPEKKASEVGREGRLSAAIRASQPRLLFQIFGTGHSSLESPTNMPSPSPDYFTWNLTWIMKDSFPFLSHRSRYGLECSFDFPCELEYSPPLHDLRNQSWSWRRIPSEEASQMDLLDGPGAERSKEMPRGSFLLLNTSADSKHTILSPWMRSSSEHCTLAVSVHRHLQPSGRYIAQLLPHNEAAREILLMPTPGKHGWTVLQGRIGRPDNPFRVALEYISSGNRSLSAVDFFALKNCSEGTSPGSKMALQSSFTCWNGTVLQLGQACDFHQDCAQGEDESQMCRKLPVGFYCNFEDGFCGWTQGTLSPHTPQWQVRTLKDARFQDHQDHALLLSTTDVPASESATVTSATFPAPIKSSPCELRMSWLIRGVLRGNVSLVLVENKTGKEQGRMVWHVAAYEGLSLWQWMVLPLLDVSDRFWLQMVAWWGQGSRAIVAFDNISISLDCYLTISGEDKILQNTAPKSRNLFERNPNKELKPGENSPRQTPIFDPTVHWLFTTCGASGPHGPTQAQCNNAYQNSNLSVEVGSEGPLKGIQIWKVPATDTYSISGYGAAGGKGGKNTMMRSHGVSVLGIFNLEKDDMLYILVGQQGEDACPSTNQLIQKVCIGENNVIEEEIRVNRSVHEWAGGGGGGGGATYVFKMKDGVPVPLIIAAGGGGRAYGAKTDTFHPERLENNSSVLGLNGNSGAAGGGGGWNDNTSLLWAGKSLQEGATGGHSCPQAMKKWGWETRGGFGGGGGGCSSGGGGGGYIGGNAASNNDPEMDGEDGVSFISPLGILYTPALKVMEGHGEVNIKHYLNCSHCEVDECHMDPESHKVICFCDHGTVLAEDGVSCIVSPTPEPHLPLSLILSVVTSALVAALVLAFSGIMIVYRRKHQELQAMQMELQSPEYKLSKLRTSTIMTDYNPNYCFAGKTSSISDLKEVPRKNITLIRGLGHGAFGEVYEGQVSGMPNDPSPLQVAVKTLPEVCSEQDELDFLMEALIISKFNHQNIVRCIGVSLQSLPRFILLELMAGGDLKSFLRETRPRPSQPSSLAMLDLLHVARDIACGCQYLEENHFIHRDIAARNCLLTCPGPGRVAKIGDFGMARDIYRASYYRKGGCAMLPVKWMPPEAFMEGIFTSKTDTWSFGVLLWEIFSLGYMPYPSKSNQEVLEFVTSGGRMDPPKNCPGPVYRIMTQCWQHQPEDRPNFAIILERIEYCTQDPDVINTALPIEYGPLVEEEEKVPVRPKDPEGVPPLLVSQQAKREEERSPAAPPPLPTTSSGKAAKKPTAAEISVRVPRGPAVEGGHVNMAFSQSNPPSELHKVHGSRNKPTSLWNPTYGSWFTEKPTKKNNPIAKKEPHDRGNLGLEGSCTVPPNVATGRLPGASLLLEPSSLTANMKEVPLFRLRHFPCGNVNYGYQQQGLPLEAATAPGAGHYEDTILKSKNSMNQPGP
Chain of human ALK, purified (hALK) (Q9UM73 other isoform, or with tags, fused parts or gaps limits assumed): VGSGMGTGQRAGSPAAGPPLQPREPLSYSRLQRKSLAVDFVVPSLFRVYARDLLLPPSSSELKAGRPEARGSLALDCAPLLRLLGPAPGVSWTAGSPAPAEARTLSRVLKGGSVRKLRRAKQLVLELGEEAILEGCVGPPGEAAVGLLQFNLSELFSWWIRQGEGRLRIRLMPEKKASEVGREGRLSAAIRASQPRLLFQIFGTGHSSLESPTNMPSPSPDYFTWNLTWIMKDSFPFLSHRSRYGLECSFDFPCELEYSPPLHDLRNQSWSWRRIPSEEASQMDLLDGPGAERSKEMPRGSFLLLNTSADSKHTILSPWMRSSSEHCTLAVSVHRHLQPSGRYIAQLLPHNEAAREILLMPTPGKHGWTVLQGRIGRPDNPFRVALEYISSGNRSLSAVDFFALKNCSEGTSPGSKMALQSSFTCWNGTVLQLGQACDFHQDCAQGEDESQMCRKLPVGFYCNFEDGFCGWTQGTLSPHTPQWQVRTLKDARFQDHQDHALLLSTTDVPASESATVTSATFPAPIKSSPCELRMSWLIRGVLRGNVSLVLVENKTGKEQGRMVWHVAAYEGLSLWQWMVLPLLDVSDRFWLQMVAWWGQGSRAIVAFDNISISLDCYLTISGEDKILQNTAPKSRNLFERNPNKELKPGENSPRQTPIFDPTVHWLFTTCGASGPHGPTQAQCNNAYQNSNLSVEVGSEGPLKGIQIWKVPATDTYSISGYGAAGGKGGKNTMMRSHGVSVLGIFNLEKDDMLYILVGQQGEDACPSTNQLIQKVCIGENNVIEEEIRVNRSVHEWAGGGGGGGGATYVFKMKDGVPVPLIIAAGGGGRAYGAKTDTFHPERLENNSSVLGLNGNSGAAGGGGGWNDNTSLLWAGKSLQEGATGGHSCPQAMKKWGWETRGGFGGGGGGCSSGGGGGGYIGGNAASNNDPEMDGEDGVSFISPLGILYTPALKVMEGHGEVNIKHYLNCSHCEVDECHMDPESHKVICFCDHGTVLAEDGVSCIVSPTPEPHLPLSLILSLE
Chain of rat ALK, purified (rALK) (P97793 other isoform, or with tags, fused parts or gaps limits assumed): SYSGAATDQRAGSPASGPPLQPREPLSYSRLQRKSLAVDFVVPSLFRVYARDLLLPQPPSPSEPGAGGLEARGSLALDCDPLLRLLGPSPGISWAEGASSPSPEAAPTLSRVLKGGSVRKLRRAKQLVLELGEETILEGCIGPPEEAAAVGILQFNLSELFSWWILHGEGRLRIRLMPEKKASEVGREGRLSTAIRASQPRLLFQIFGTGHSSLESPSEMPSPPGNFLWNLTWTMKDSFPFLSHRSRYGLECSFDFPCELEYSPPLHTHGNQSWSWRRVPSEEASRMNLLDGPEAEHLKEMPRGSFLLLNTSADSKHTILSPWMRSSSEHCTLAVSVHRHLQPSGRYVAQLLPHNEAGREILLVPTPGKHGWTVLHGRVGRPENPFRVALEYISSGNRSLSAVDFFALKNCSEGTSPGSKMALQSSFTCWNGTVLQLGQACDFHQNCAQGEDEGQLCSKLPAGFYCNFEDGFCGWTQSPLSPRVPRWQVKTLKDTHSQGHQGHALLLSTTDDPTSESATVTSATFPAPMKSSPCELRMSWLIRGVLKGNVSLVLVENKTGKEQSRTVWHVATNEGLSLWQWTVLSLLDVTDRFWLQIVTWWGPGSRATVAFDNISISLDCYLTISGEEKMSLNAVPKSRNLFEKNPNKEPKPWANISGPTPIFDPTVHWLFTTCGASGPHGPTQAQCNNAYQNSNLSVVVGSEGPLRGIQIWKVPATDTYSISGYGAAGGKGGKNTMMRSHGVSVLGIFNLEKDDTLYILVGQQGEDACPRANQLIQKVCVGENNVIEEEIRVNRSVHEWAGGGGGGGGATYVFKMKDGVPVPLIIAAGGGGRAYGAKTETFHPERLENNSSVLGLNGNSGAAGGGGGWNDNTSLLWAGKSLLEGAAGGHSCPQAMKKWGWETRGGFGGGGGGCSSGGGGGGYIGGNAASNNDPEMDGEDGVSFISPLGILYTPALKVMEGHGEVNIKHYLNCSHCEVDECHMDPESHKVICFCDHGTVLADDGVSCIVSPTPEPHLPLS
T3 sequence (P97793 19-1042 limits assumed): as the sequence (P97793 19-1042 limits assumed) above

Row | Binder | Kd [4] [nM] | Kd [5] [nM] | other results
1 | B1 | 24 | – | Kd [1]: 77.2 nM; Kd [2]: 105 nM; Kd [3]: 205 nM
2 | B2 | 18 | – | –
3 | B3 | 31 | – | Kd [1]: 86.5 nM; Kd [2]: 103 nM; Kd [3]: 150 nM
4 | B4 | 24 | – | –
5 | B5 | 22 | – | –
6 | B6 | 35 | 0.35 | Kd [2]: 69 nM; Kd [3]: 120 nM
7 | B7 | – | 0.5 | binding result [6]: no binding
8 | B8 | – | 0.5 | –
9 | B9 | – | 0.34 | –
10 | B10 | – | 0.4 | –
11 | B11 | – | 3.13 | –
12 | B12 | – | 2.5 | binding result [6]: no binding
13 | B13 | – | 0.1 | –
14 | B14 | – | 0.35 | –
15 | B15 | – | 0.08 | –
16 | B16 | – | 1.55 | –
